Source: PMC4993455 (PLoS ONE, 2016)

B1: HA-PDRG1 (natural protein)
chain: not shown
notes: residues between the HA tag and PDRG1; rat PDRG1, full ORF (402 bp); also called pHA-PDRG1; HA-tagged PDRG1; source: CHO, HEK 293T or COS-7 cells, transiently transfected; in total lysate, nuclear or cytosolic fractions; not shown: HA, N-terminal, kept
B2: GST-PDRG1 (natural protein)
chain: not shown
notes: 9 amino acid linker between GST and PDRG1; rat PDRG1, full ORF (402 bp) in pGEX-5X-1; also called pGEX-PDRG1; tagged-PDRG1; source: E. coli BL21(DE3) Codon Plus; soluble extract loaded on Glutathione-Sepharose (pull-down); purified on Glutathione-Sepharose 4B, eluted with 20 mM GSH (gel filtration, activity); not shown: GST, N-terminal, kept
B3: FLAG-MATα1 (enzyme)
chain: not shown
notes: rat MATα1, pFLAG-MAT containing the rat Mat1a ORF; also called pFLAG-MAT; source: CHO, HEK 293T or COS-7 cells, transiently transfected; in total lysate, nuclear or cytosolic fractions

Experiments:
[1] = molecular target: the molecule itself; test: SEC; analytical gel filtration of nuclear fractions (100 μl) of HEK 293T cells overexpressing HA-PDRG1, FLAG-MATα1 or both on Superose 12 10/300 GL; fractions analysed by dot-blot
[2] = molecular target: T1, recombinant methionine adenosyltransferase α1 (MATα1) (rat, UniProt P13444 1-397); test: SEC; equimolar purified recombinant MATα1 or MATα2 and GST-PDRG1 incubated 1 hour at 4°C, then Biogel A column (1.5 x 90 cm) in 50 mM Tris/HCl pH 8, 10 mM MgSO4, 50 mM KCl at 4°C; both proteins detected in the pooled activity peaks by Coomassie staining and/or western blotting; settings: both partners purified
T1 construct: rat MATα1, pSSRL-T7N containing the rat Mat1a ORF; also called pSSRL-T7N; MATα1 homo-oligomers; source: E. coli BL21(DE3) Codon Plus; soluble extract (pull-down)
T1 sequence (P13444 whole entry): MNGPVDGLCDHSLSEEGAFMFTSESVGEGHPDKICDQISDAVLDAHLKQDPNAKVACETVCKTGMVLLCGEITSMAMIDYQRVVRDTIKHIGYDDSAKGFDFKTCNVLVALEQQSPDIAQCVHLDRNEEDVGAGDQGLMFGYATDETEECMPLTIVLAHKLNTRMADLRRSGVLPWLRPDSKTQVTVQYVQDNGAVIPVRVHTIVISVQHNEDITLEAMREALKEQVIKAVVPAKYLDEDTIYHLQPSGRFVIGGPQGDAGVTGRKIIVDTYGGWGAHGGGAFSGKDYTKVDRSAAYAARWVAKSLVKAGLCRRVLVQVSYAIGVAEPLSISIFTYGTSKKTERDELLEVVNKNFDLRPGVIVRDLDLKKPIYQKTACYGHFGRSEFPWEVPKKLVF

| Binder | stoichiometry N [1] | binding result [2] |
| --- | --- | --- |
| B1 | 6 | – |
| B2 | – | binds |
| B3 | 4 | – |
